These results are taken from patent US20240254201A1 (ACADEMY OF MILITARY MEDICAL SCIENCE PLA, published 2024).

The target of assay [1] is T1, EBOV GP on EBOV-eGFP-Mayinga authentic virus (Ebola virus (EBOV), Mayinga, UniProt Q05320 33-676).
T1 sequence: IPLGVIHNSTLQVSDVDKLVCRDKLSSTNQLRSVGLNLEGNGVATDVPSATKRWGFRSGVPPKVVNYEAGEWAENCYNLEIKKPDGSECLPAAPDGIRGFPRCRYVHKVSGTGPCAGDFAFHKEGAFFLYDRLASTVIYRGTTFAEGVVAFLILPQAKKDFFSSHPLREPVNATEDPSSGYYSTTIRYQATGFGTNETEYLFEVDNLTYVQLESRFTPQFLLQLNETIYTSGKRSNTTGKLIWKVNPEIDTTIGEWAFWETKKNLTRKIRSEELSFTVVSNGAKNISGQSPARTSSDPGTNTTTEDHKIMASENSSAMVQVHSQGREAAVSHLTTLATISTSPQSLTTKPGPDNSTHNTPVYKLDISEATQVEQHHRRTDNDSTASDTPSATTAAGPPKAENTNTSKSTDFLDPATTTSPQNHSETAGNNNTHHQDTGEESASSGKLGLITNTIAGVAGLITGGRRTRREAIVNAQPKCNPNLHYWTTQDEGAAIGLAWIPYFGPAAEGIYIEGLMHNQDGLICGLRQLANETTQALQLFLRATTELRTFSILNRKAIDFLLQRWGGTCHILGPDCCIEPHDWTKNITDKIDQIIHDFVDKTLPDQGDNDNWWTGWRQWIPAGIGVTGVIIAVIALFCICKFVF
Kind of assay: cell-based or functional assay.

Another assay deals with T2, sGP (Ebola virus (EBOV), UniProt P60170 33-324).
T2 construct: also called secreted glycoprotein
Kind of assay: ELISA on coated truncated GP. On the technique in general: ELISA stands for enzyme-linked immunosorbent assay.

For the next assay, the target named is T3, RESTV GP (RESTV, UniProt Q66799 34-638).
T3 sequence: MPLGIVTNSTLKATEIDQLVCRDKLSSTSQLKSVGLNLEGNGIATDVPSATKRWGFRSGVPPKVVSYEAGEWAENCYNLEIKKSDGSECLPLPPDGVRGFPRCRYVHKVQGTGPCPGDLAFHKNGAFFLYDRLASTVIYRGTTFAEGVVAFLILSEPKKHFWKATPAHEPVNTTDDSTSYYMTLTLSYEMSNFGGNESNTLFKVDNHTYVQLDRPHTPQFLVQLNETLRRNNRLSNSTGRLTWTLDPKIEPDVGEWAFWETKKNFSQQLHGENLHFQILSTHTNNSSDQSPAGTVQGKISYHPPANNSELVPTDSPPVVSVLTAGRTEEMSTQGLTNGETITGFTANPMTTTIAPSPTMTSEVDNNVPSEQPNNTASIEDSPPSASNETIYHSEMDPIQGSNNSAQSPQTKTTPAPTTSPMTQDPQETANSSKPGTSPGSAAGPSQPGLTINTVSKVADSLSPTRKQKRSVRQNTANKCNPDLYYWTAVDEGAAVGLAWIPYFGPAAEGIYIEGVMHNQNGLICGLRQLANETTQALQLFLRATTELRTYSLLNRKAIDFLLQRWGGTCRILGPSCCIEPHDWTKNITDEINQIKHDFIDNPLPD
Kind of assay: ELISA, purified antibody on coated GP (1 µg/mL).

Another assay has as its target T4, SUDV GP (Sudan ebolavirus (SUDV), UniProt Q7T9D9 33-637).
T4 construct: also called Sudan ebolavirus GP
T4 sequence: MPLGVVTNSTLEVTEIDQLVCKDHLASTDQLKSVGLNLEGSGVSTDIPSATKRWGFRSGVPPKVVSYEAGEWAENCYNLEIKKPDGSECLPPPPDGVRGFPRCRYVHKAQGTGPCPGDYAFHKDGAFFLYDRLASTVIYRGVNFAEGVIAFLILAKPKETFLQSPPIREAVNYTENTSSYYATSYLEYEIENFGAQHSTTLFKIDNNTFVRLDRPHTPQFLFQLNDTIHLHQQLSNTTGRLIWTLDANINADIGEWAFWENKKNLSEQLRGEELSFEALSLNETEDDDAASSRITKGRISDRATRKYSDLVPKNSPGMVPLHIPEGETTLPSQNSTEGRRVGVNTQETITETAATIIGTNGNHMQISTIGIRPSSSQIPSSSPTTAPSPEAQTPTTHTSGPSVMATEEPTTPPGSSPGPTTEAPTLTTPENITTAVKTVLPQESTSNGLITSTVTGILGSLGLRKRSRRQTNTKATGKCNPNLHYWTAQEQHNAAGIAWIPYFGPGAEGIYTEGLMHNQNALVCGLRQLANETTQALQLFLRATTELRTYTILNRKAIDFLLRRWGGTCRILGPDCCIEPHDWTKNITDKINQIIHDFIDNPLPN
Kind of assay: ELISA, purified antibody on coated GP (1 µg/mL).

B1: MIL77-1 (antibody, V domains shown)
VH: EVALEESGGGLMQPGGSMKLSCVASGFTFSNYWMNWVRQSPEKGLEWVAEIRLKSNNYATHYAESVKGRFTISRDDSKRSVYLQMNTLRAEDTGIYYCTRGNGNYRAMDYWGQGTSVTVSS
VL: DIQMTQSPASLSVSVGETVSITCRASENIYSSLAWYQQKQGKSPQLLVYSATILADGVPSRFSGSGSGTQYSLKINSLQSEDFGTYYCQHFWGTPYTFGGGTKLEIKR
As to B1, in assay [1], the “IC50, EBOV-eGFP-Mayinga authentic virus neutralization test” value is 3.12 µg/mL.

B2: monoclonal antibody 2G1 (antibody, V domains shown)
VH: EVQLVESGGGLVKRGGSLRLSCVVSGYTFGGYSMHWVRQAPGKGLEWVSGISSSSYYKYYADSVKGRFTISRDNAKNSLYLQMNSLRAEDTAVYYCARDMGYCSGGSCPNFDFWGQGTTVTVSS
VL: DIQMTQSPSSLSASVGDRVTITCRTSQSISNYLNWYQQIPGKAPKLLISTASNLHSGVSSRFSGSGSGTHFTLTISSLQPEDFATYYCQQSYSTPSFGQGTKVEIKR
notes: also called 2G1-WT; wild-type 2G1
For orientation: EC50 means the midpoint of the concentration-response curve. A lower EC50 goes with higher potency in that assay. For the molecule B2, in the assay with sGP, the binding result is “no binding”. Besides, the EC50 was 0.026 µg/mL with RESTV GP and 0.0048 µg/mL with SUDV GP.
